Results taken from patent US20120122783A1 (INDIANA UNIVERSITY RESEARCH AND TECHOLOGY, published 2012).
Like-named read-outs stand apart in the source and are kept apart here. Square brackets hold non-standard residues; d marks the D form. Ends that are not written are not given here. Abu(4-SO3H) = N[C@@H](CCS(=O)(=O)O)C(=O)O; PhLac = O=C(O)[C@@H](O)Cc1ccccc1; PLA = not defined here

Assays:
Experiment in all cases: cell-based or functional assay
human glucagon receptor [1] = target: T1, human glucagon receptor (human, UniProt P47871 26-477)
human glucagon receptor [2] = target: T1, human glucagon receptor; remark: listed apart in the source
human glucagon receptor [3] = target: T1, human glucagon receptor; remark: listed apart in the source
human glucagon receptor [4] = target: T1, human glucagon receptor; remark: listed apart in the source

T1 sequence (P47871 26-477): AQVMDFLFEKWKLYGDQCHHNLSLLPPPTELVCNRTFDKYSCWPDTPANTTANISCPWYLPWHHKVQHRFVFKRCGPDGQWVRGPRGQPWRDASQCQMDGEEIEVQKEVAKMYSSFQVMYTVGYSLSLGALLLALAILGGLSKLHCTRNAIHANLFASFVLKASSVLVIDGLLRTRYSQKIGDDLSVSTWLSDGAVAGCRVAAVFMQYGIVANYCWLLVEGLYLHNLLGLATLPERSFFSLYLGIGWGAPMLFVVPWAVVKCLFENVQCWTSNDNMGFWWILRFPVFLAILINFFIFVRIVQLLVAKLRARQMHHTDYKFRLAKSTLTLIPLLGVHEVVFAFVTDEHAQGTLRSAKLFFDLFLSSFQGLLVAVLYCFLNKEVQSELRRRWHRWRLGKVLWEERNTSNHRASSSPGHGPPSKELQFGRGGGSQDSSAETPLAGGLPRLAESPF

[PLA]TSEYSKYLDSRRAQDFVQWLMNTGPSSGAPPPS-NH2 (reading uncertain) [[PLA6, E9]Glucagon(aa6-29+CEX)-NH2]
IC50 (nM) (cAMP, inhibit Glucagon) 0.1 nM or 0.2 nM (human glucagon receptor [1]): 24.8 nM

B1: [hCys^9(SO3H)]Glucagon(aa4-29)-NH2 (peptide)
peptide: GTFTS[Abu(4-SO3H)]YSKYLDSRRAQDFVQWLMNT-NH2
modifications: N-terminus assumed
SMILES: CSCC[C@H](NC(=O)[C@H](CC(C)C)NC(=O)[C@H](Cc1c[nH]c2ccccc12)NC(=O)[C@H](CCC(N)=O)NC(=O)[C@@H](NC(=O)[C@H](Cc1ccccc1)NC(=O)[C@H](CC(=O)O)NC(=O)[C@H](CCC(N)=O)NC(=O)[C@H](C)NC(=O)[C@H](CCCNC(=N)N)NC(=O)[C@H](CCCNC(=N)N)NC(=O)[C@H](CO)NC(=O)[C@H](CC(=O)O)NC(=O)[C@H](CC(C)C)NC(=O)[C@H](Cc1ccc(O)cc1)NC(=O)[C@H](CCCCN)NC(=O)[C@H](CO)NC(=O)[C@H](Cc1ccc(O)cc1)NC(=O)[C@H](CCS(=O)(=O)O)NC(=O)[C@H](CO)NC(=O)[C@@H](NC(=O)[C@H](Cc1ccccc1)NC(=O)[C@@H](NC(=O)CN)[C@@H](C)O)[C@@H](C)O)C(C)C)C(=O)N[C@@H](CC(N)=O)C(=O)N[C@H](C(N)=O)[C@@H](C)O
cAMP IC50 (human glucagon receptor [2]): 68.4 nM

FTS[Abu(4-SO3H)]YSKYLDSRRAQDFVQWLMNT-NH2 [[hCys^9(SO3H)]Glucagon(aa6-29)-NH2]
cAMP IC50 (human glucagon receptor [2]): 133 nM | cAMP IC50 (human glucagon receptor [3]): 133 nM

SQGTFTS[Abu(4-SO3H)]YSKYLDSRRAQDFVQWLMNT-NH2 [[hCys^9(SO3H)]Glucagon(aa2-29)-NH2]
cAMP IC50 (human glucagon receptor [2]): 147 nM

[PhLac]TS[Abu(4-SO3H)]YSKYLDSRRAQDFVQWLMNT-NH2 [[PLA6, hCys(SO3)9]Glucagon(aa6-29)-NH2]
IC50 (nM) (cAMP, inhibit Glucagon) 0.1 nM or 0.2 nM (human glucagon receptor [1]): 40.2 nM

B2: [hCys^9(SO3H)]Glucagon(aa5-29)-NH2 (peptide)
peptide: TFTS[Abu(4-SO3H)]YSKYLDSRRAQDFVQWLMNT-NH2
modifications: N-terminus assumed
SMILES: CSCC[C@H](NC(=O)[C@H](CC(C)C)NC(=O)[C@H](Cc1c[nH]c2ccccc12)NC(=O)[C@H](CCC(N)=O)NC(=O)[C@@H](NC(=O)[C@H](Cc1ccccc1)NC(=O)[C@H](CC(=O)O)NC(=O)[C@H](CCC(N)=O)NC(=O)[C@H](C)NC(=O)[C@H](CCCNC(=N)N)NC(=O)[C@H](CCCNC(=N)N)NC(=O)[C@H](CO)NC(=O)[C@H](CC(=O)O)NC(=O)[C@H](CC(C)C)NC(=O)[C@H](Cc1ccc(O)cc1)NC(=O)[C@H](CCCCN)NC(=O)[C@H](CO)NC(=O)[C@H](Cc1ccc(O)cc1)NC(=O)[C@H](CCS(=O)(=O)O)NC(=O)[C@H](CO)NC(=O)[C@@H](NC(=O)[C@H](Cc1ccccc1)NC(=O)[C@@H](N)[C@@H](C)O)[C@@H](C)O)C(C)C)C(=O)N[C@@H](CC(N)=O)C(=O)N[C@H](C(N)=O)[C@@H](C)O
cAMP IC50 (human glucagon receptor [2]): 98.3 nM

B3: [PLA^5, E^9]Glucagon(aa5-29)-NH2 (peptide)
peptide: [PhLac]FTSEYSKYLDSRRAQDFVQWLMNT-NH2
modifications: N-terminus assumed
SMILES: CSCC[C@H](NC(=O)[C@H](CC(C)C)NC(=O)[C@H](Cc1c[nH]c2ccccc12)NC(=O)[C@H](CCC(N)=O)NC(=O)[C@@H](NC(=O)[C@H](Cc1ccccc1)NC(=O)[C@H](CC(=O)O)NC(=O)[C@H](CCC(N)=O)NC(=O)[C@H](C)NC(=O)[C@H](CCCNC(=N)N)NC(=O)[C@H](CCCNC(=N)N)NC(=O)[C@H](CO)NC(=O)[C@H](CC(=O)O)NC(=O)[C@H](CC(C)C)NC(=O)[C@H](Cc1ccc(O)cc1)NC(=O)[C@H](CCCCN)NC(=O)[C@H](CO)NC(=O)[C@H](Cc1ccc(O)cc1)NC(=O)[C@H](CCC(=O)O)NC(=O)[C@H](CO)NC(=O)[C@@H](NC(=O)[C@H](Cc1ccccc1)NC(=O)[C@@H](O)Cc1ccccc1)[C@@H](C)O)C(C)C)C(=O)N[C@@H](CC(N)=O)C(=O)N[C@H](C(N)=O)[C@@H](C)O
IC50 (nM) (cAMP, inhibit 0.8 mM Glucagon) (human glucagon receptor [4]): 328 nM
